Assay results: US20180360950A1 (published 2018)

T1: recombinant full-length DARC325 protein (UniProt Q16570 1-325)
T1 chain: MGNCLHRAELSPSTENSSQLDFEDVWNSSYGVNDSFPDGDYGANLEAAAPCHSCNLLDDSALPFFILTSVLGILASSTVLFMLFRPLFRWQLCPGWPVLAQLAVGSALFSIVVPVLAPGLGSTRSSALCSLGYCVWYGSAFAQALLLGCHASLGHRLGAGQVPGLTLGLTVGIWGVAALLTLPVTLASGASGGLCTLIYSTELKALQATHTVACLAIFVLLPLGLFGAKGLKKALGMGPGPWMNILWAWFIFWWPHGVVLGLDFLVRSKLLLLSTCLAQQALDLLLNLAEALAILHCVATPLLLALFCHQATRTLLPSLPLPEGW


Tests used:
[1] = biological target: recombinant full-length VAR2CSA (3D7-DBL1X-6ε) (Plasmodium falciparum (3D7)); test: SPR
[2] = biological target: T1, recombinant full-length DARC325 protein; test: SPR

Binder	Kd [1] [nM]	Kd [2] [nM]
VAR2CSAVHH (VHH) VHH: QVQLQESGGGLVQAGGSLRLSCAFSGSIFKMGWFRQAPGKEREFVAAIRWSGGSTYYADSVKGRFTISRDNAKNTVYLQMDSLKPEDTAVYYCAATWDLAGWNTVDEYDYWGQGTQVTVSS	0.486	
DARCVHH (VHH) VHH: QVQLQESGGGSVQAGGSLRLSCAASGYAFSSYCMAWFRQVPGKEREGVASINSDGERRGYADSVKGRFTVSRDNAKNTVYLQMNSLKPEDTAIYYCAAKRVVGGRYCGGGVSSWGQGTQVTVSS		0.09
DARCVHH-EBV P18F4 (VHH) VHH: QVQLQESGGGSVQAGGSLRLSCAASGYAFSSYCMAWFRQVPGKEREGVASINSDGERRGYADSVKGRFTVSRDNAKNTVYLQMNSLKPEDTAIYYCAAKRVVGGRYCGGGVSSWGQGTQVTVSS		0.0565
